Source: paper PMC2229230
Where two headings read alike, the source gives them in different places.

How the values were obtained:
endo-Gly0-gramicidin C [1] = assay: single-channel recording in planar lipid bilayers
endo-Gly0-gramicidin C [2] = assay: single-channel recording in planar lipid bilayers; remark: listed apart in the source

- average channel duration tau (dimer lifetime, 1/k-1) (endo-Gly0-gramicidin C [1]): 862 ms
- average channel duration tau (dimer lifetime, 1/k-1) (endo-Gly0-gramicidin C [2]): 410 ms
Substance: endo-Gly0-gramicidin C (peptide)
